# In US20170037110A1 (IMMATICS BIOTECHNOLOGIES, published 2017):
# Non-standard residues stand in square brackets, D forms with d. No end group written: not given here. pS = N[C@@H](COP(=O)(O)O)C(=O)O
# Molecular target: T1, HLA-A*02:01 (human)
# T1 construct: monomers captured on streptavidin plates; also called MHC class I
# Experiment: UV peptide exchange ELISA
# Summary of the method: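 Read-out is an ELISA on the UV-exchange reaction: monomers, diluted 100-fold, are captured on streptavidin and the β2m light chain is detected with 2 μg/ml HRP antibody and TMB at 450 nm.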
row,Binder,peptide exchange yield [%]
1,TLYDIAHTPGV,≥ 75
2,ALWDLAADKQTL,≥ 75
3,LLLTTIPQI,50 to 75
4,TLDITPHTV,50 to 75
5,IMLKGDNITL,50 to 75
6,RVWDISTVSSV,50 to 75
7,VMFEDGVLMRL,50 to 75
8,SMLEPVPEL,50 to 75
9,LLWDVPAPSL,50 to 75
10,RLAEVGQYEQV,20 to 50
11,YLISQVEGHQV,50 to 75
12,YLQLTQSEL,50 to 75
13,YTLPIASSIRL,50 to 75
14,SLWQDIPDV,50 to 75
15,GLLENIPRV,50 to 75
16,LLADELITV,50 to 75
17,RLL[pS]AAENFL [RLLJAAENFL],50 to 75
18,ALFDAQAQV,50 to 75
19,LLMPSSEDLLL,50 to 75
20,ILTEENIHL,50 to 75
21,GLLDLPFRVGV,≥ 75
22,TVTNAVVTV,50 to 75
23,LLLAHIIAL,20 to 50
24,ALWDIETGQQTTT,50 to 75
25,ILDPISSGFLL,20 to 50

row,Binder,peptide exchange yield [%]
1,YLLQEPPRTV,20 to 50
2,KLYESLLPFA,50 to 75
3,ALAEVAAMENV,50 to 75
4,SMAELDIKL,50 to 75
5,YQIPRTFTL,20 to 50
6,ILANDGVLLAA,50 to 75
7,VLLQKIVSA,50 to 75
8,YVLEGLKSV,50 to 75
9,TLCDVILMV,50 to 75
10,ILLSVPLLVV,20 to 50
11,LLADLLHNV,50 to 75
12,VTVPPGPSL,20 to 50
13,FLTDLEDLTL,50 to 75
14,ALWENPESGEL,20 to 50
15,NLMEMVAQL,20 to 50
16,KLKPGDLVGV,50 to 75
17,SVAEGRALMSV,50 to 75
18,VLLSIYPRV,50 to 75
19,VLLEAGEGLVTI,50 to 75
20,ALIENLTHQI,20 to 50
21,GLPRFGIEMV,50 to 75
22,VMYADIGGMDI,50 to 75
23,ILVANAIVGV,50 to 75
24,KLYPQLPAEI,50 to 75
25,ALLDQTKTLAESAL,50 to 75

row,Binder,peptide exchange yield [%]
1,VIADGGIQNV,20 to 50
2,ALQETPTSV,20 to 50
3,SLLNQDLHWSL,≥ 75
4,VMIAGKVAVV,50 to 75
5,SLLPLSHLV,50 to 75
6,VMNDRLYAI,50 to 75
7,AMLENASDIKL,50 to 75
8,YLEELPEKLKL,50 to 75
9,ALADLIEKELSV,50 to 75
10,ILLNNSGQIKL,≥ 75
11,FLDPGGPMMKL,50 to 75
12,WLLPYNGVTV,50 to 75
13,VLSSLEINI,20 to 50
14,KLYDDMIRL,50 to 75
15,SLLPLDDIVRV,50 to 75
16,FLLEPGNLEV,≥ 75
17,SLIEKLWQT,20 to 50
18,FLYDEIEAEVNL,50 to 75
19,TLAPGEVLRSV,50 to 75
20,LLMENAERV,20 to 50
21,KLVDRTWTL (probably a misprint of W as VV),50 to 75
22,GLLPTPITQQASL,50 to 75
23,ALANQIPTV,20 to 50
